In article PMC12560246, “Calorimetric characterization of the stability and activity of trimethylamine‐N‐oxide (TMAO) demethylase from Methylocella silvestris BL2” (Protein Science : A Publication of the Protein Society, 2025):
“And” between values parts separate entries of the source, which are not always exact repeats. Equal values may be shown once.

Columns and labels:
[1] = molecular target: trimethylamine-N-oxide demethylase (Tdm) from Methylocella silvestris BL2 (Methylocella silvestris BL2); assay: SEC; analytical SEC, HiLoad 16/600 Superdex 200 pg, 50 mM TRIS pH 7.9, 150 mM NaCl, 0.5 mL/min; column calibrated with globular proteins; 0.5 mL of concentrated IMAC fractions injected
[2] = substrate: C[N+](C)(C)[O-]; assay: isothermal titration calorimetry, multiple injection, Michaelis-Menten fit; assay type: biochemical, Methylocella silvestris; conditions: 50 mM KPi pH 7.0, 25 °C, 100 nM Tdm, multiple injections of 600 μM TMAO
Text: isothermal titration calorimetry, multiple injection, Michaelis-Menten fit on Tdm (trimethylamine-N-oxide demethylase)

stoichiometry N [1]	Molecule	Km [2] [µM]	Vmax [2] [µmol/min]	kcat [2] [s⁻¹]
8 and 5	trimethylamine-N-oxide demethylase (Tdm) from Methylocella silvestris BL2 (enzyme)	–	–	–
–	Tdm (trimethylamine-N-oxide demethylase) (Methylocella silvestris BL2) (protein, GenBank version '.14' [sic]) MNVNAAAPKGSFDLDAPRRVQTLSAAGGGGVQFDLSAGDEAIITNLEGGQAGELLTASGEPLRLTPGSAPTDEAGVRAVAGDLAAAFLAARQGTERFLATPLFHAAAEPGETFRFKAEADMRCLLLAPGEPMAPDAQNPPTELRLDIFSSRPTGGAAPPSLAPVKLDLRVDAATARAYRVSAGDYIQIIDVDGRQCSDLVAFDARALAEGRELGVDPTVTRTLMGSATPGPGLHAKYFDQDMNPLFEIVRDTVGRHDTFMLACNAKYYDDMGYPGHANCTDNFNAALAPFGVAPRRGWPAINFFYNTFVAEDNTIGLDEPWSRPGDYVLLRALTDLVCASSSCADDIDPANGWMPTDIHVRVYDAAASFSKGIAHRMTADAAPRLTRESGFHSRTSALTRSFADYRGFWTPQCYASEGPIAEYWACRERAVLIDLSALRKFEITGPDAEILLQSAVTRNIRKLAVGQIVYTAICHEHGGMLDDGTVFRLGDNNFRLVCGEDYCGVFLRELAARQGLRAFVRSSTDQLHNVALQGPKSRDILREILVTPPHRASADELKWFRFTVGKIAGLPVLVSRTGYTGELGYEIWLHPGSAVAVWDALMAAGKPYGIAPFGFAALDMVRIEAGLIFAHHEFCDETDPFEAGIGFAVPAEKADPYVGSEALARRRASPIRRLAGLDVAGNEAVAHGDPVFAGRAQVGVVTSAMRSPVLGRTIALARLDAACASIGTDLEIGKLDGRQKRIAATVARFPHYDPEKARVRA	866 ± 72	18.5	15.48 ± 0.04
